Assay results from patent US20190071490A1, “Preventing Post-Ictal Headaches” (Beth Israel Deaconess Medical Center, Inc., priority 2017, published 2019).

T1: human α-CGRP (Homo sapiens, UniProt P06881)
T1 construct: 1-37 (WT); purchased GenScript Corporation or Global Peptide Services
T1 sequence (P06881 83-119 limits assumed): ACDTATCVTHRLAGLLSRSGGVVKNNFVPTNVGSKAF

T2: rat α-CGRP (Rattus norvegicus, UniProt P01256)
T2 construct: rat α (1-37); purchased GenScript Corporation or Global Peptide Services
T2 sequence (P01256 83-119 limits assumed): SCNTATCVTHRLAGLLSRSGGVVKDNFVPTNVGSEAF


How the values were obtained:
[1] = target: T1, human α-CGRP; experiment: Biacore SPR affinity of Fab fragments to N-biotinylated human α-CGRP on SA chip; format: binding; details: 37° C., screening mode except underlined values
How it was run: (§1)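 HBS-EP pH 7.4 running buffer at 25° C. or 37° C.; N-biotinylated CGRP captured on streptavidin SA chip (<50 RU for kinetics), Fab titrated over surface with regeneration by 25 mM NaOH/25% ethanol. Titrations globally fit to 1:1 Langmuir model; KD=koff/kon, with 2-hour dissociation for very slow off-rates.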

[2] = target: T2, rat α-CGRP; experiment: Biacore SPR affinity of Fab fragments to N-biotinylated rat α-CGRP on SA chip; format: binding; details: 37° C., screening mode except underlined values
How it was run: as §1

Molecule | α-human koff [1] | α-rat koff [2]
M24: G1 variant; L1 R28L; HC-FW3 L99T A100V (antibody, V domains shown) VH: EVQLVESGGGLVQPGGSLRLSCAASGFTFSNYWISWVRQAPGKGLEWVAEIRSESDASATHYAEAVKGRFTISRDNAKNSLYLQMNSLRAEDTAVYYCTVYFDYGLAIQNYWGQGTLVTVSS VL: EIVLTQSPATLSLSPGERATLSCKASKLVTTYVSWYQQKPGQAPRLLIYGASNRYLGIPARFSGSGSGTDFTLTISSLEPEDFAVYYCSQSYNYPYTFGQGTKLEIK | 0.000148 s⁻¹ | 0.00104 s⁻¹
M28: G1 variant; L1 R28N T30D; H2 E54R A57N; HC-FW3 L99T A100V (antibody, V domains shown) VH: EVQLVESGGGLVQPGGSLRLSCAASGFTFSNYWISWVRQAPGKGLEWVAEIRSRSDNSATHYAEAVKGRFTISRDNAKNSLYLQMNSLRAEDTAVYYCTVYFDYGLAIQNYWGQGTLVTVSS VL: EIVLTQSPATLSLSPGERATLSCKASKNVDTYVSWYQQKPGQAPRLLIYGASNRYLGIPARFSGSGSGTDFTLTISSLEPEDFAVYYCSQSYNYPYTFGQGTKLEIK | 9.96e-05 s⁻¹ | 0.00125 s⁻¹
M29: G1 variant; L1 R28N T30G; HC-FW3 L99T A100V (antibody, V domains shown) VH: EVQLVESGGGLVQPGGSLRLSCAASGFTFSNYWISWVRQAPGKGLEWVAEIRSESDASATHYAEAVKGRFTISRDNAKNSLYLQMNSLRAEDTAVYYCTVYFDYGLAIQNYWGQGTLVTVSS VL: EIVLTQSPATLSLSPGERATLSCKASKNVGTYVSWYQQKPGQAPRLLIYGASNRYLGIPARFSGSGSGTDFTLTISSLEPEDFAVYYCSQSYNYPYTFGQGTKLEIK | 0.00038 s⁻¹ | 0.00359 s⁻¹
M26: G1 variant; L1 R28N; H2 A57G; HC-FW3 L99T A100V (antibody, V domains shown) VH: EVQLVESGGGLVQPGGSLRLSCAASGFTFSNYWISWVRQAPGKGLEWVAEIRSESDGSATHYAEAVKGRFTISRDNAKNSLYLQMNSLRAEDTAVYYCTVYFDYGLAIQNYWGQGTLVTVSS VL: EIVLTQSPATLSLSPGERATLSCKASKNVTTYVSWYQQKPGQAPRLLIYGASNRYLGIPARFSGSGSGTDFTLTISSLEPEDFAVYYCSQSYNYPYTFGQGTKLEIK | 0.000148 s⁻¹ | 0.000924 s⁻¹
M27: G1 variant; L1 R28N T30A; HC-FW3 L99T A100V (antibody, V domains shown) VH: EVQLVESGGGLVQPGGSLRLSCAASGFTFSNYWISWVRQAPGKGLEWVAEIRSESDASATHYAEAVKGRFTISRDNAKNSLYLQMNSLRAEDTAVYYCTVYFDYGLAIQNYWGQGTLVTVSS VL: EIVLTQSPATLSLSPGERATLSCKASKNVATYVSWYQQKPGQAPRLLIYGASNRYLGIPARFSGSGSGTDFTLTISSLEPEDFAVYYCSQSYNYPYTFGQGTKLEIK | 0.000357 s⁻¹ | 0.00341 s⁻¹

Further lines, results first:

α-human koff [1] | α-rat koff [2] | Molecule
0.000646 s⁻¹ | 0.00217 s⁻¹ | M34: G1 variant; L1 R28N T30G; H2 E54K A57N S58T; HC-FW3 L99T A100V (antibody, V domains shown) VH: EVQLVESGGGLVQPGGSLRLSCAASGFTFSNYWISWVRQAPGKGLEWVAEIRSKSDNTATHYAEAVKGRFTISRDNAKNSLYLQMNSLRAEDTAVYYCTVYFDYGLAIQNYWGQGTLVTVSS VL: EIVLTQSPATLSLSPGERATLSCKASKNVGTYVSWYQQKPGQAPRLLIYGASNRYLGIPARFSGSGSGTDFTLTISSLEPEDFAVYYCSQSYNYPYTFGQGTKLEIK
0.00075 s⁻¹ | 0.00922 s⁻¹ | M33: G1 variant; L1 R28N T30G; H2 E54K A57N S58G; HC-FW3 L99T A100V (antibody, V domains shown) VH: EVQLVESGGGLVQPGGSLRLSCAASGFTFSNYWISWVRQAPGKGLEWVAEIRSKSDNGATHYAEAVKGRFTISRDNAKNSLYLQMNSLRAEDTAVYYCTVYFDYGLAIQNYWGQGTLVTVSS VL: EIVLTQSPATLSLSPGERATLSCKASKNVGTYVSWYQQKPGQAPRLLIYGASNRYLGIPARFSGSGSGTDFTLTISSLEPEDFAVYYCSQSYNYPYTFGQGTKLEIK
0.000339 s⁻¹ | 0.00399 s⁻¹ | M35: G1 variant; L1 R28N T30G; H2 E54K A57S; HC-FW3 L99T A100V (antibody, V domains shown) VH: EVQLVESGGGLVQPGGSLRLSCAASGFTFSNYWISWVRQAPGKGLEWVAEIRSKSDSSATHYAEAVKGRFTISRDNAKNSLYLQMNSLRAEDTAVYYCTVYFDYGLAIQNYWGQGTLVTVSS VL: EIVLTQSPATLSLSPGERATLSCKASKNVGTYVSWYQQKPGQAPRLLIYGASNRYLGIPARFSGSGSGTDFTLTISSLEPEDFAVYYCSQSYNYPYTFGQGTKLEIK
0.000347 s⁻¹ | 0.00361 s⁻¹ | M31: G1 variant; L1 R28N T30G; H2 E54K A57G; HC-FW3 L99T A100V (antibody, V domains shown) VH: EVQLVESGGGLVQPGGSLRLSCAASGFTFSNYWISWVRQAPGKGLEWVAEIRSKSDGSATHYAEAVKGRFTISRDNAKNSLYLQMNSLRAEDTAVYYCTVYFDYGLAIQNYWGQGTLVTVSS VL: EIVLTQSPATLSLSPGERATLSCKASKNVGTYVSWYQQKPGQAPRLLIYGASNRYLGIPARFSGSGSGTDFTLTISSLEPEDFAVYYCSQSYNYPYTFGQGTKLEIK
0.000239 s⁻¹ | 0.00479 s⁻¹ | M36: G1 variant; L1 R28N T30R; HC-FW3 L99T A100V (antibody, V domains shown) VH: EVQLVESGGGLVQPGGSLRLSCAASGFTFSNYWISWVRQAPGKGLEWVAEIRSESDASATHYAEAVKGRFTISRDNAKNSLYLQMNSLRAEDTAVYYCTVYFDYGLAIQNYWGQGTLVTVSS VL: EIVLTQSPATLSLSPGERATLSCKASKNVRTYVSWYQQKPGQAPRLLIYGASNRYLGIPARFSGSGSGTDFTLTISSLEPEDFAVYYCSQSYNYPYTFGQGTKLEIK
0.000271 s⁻¹ | 0.00296 s⁻¹ | M32: G1 variant; L1 R28N T30G; H2 E54K A57H; HC-FW3 L99T A100V (antibody, V domains shown) VH: EVQLVESGGGLVQPGGSLRLSCAASGFTFSNYWISWVRQAPGKGLEWVAEIRSKSDHSATHYAEAVKGRFTISRDNAKNSLYLQMNSLRAEDTAVYYCTVYFDYGLAIQNYWGQGTLVTVSS VL: EIVLTQSPATLSLSPGERATLSCKASKNVGTYVSWYQQKPGQAPRLLIYGASNRYLGIPARFSGSGSGTDFTLTISSLEPEDFAVYYCSQSYNYPYTFGQGTKLEIK
0.00059 s⁻¹ | 0.00638 s⁻¹ | M30: G1 variant; L1 R28N T30G; H2 E54K A57E; HC-FW3 L99T A100V (antibody, V domains shown) VH: EVQLVESGGGLVQPGGSLRLSCAASGFTFSNYWISWVRQAPGKGLEWVAEIRSKSDESATHYAEAVKGRFTISRDNAKNSLYLQMNSLRAEDTAVYYCTVYFDYGLAIQNYWGQGTLVTVSS VL: EIVLTQSPATLSLSPGERATLSCKASKNVGTYVSWYQQKPGQAPRLLIYGASNRYLGIPARFSGSGSGTDFTLTISSLEPEDFAVYYCSQSYNYPYTFGQGTKLEIK
